B1: CPXM2 (parent)
chain: EILGCPLPDPNNYYHRRNEMTTTD
B2: SPACA3 (parent)
chain: FTSGFNAAALDYEADGSTNNGIFQ

Variants of: B1
Experiment: protein stability index of a GFP-peptide fusion (GPS, HEK-293T) (PSI 1-6); higher = more stable
Conditions: c terminus: a fixed tail appended
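Note: lentivirally expressed fusions sorted by FACS into six bins by GFP to DsRed ratio, PSI derived from sequencing read proportions per bin multiplied by bin number.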

Protein stability index, by site and new letter:
N18: R 3.19; S 3.26; T 3.6; V 2.77; W 2.16; Y 2.67
E19: A 2.89; C 2.8; D 3.62; F 2.62; G 3.59; H 3.1; I 2.19; K 2.83; L 2.22; M 2.48; N 3.3; P 2.86; Q 3.31; R 3.16; S 3.46; T 2.95; V 2.71; W 2.09; Y 2.6
M20: A 3.99; C 3.69; D 4.35; E 4.59; F 2.98; G 4.6; H 3.69; I 3.69; K 3.53; L 2.95; N 3.92; P 3.92; Q 4.42; R 3.57; S 3.98; T 4.6; V 3.7; W 3.12; Y 2.46
T21: A 3.6; C 2.92; D 4.25; E 4.27; F 2.77; G 3.55; H 2.91; I 2.77; K 4.37; L 2.97; M 3.23; N 3.45; P 3.08; Q 3.6; R 3.05; S 3.52; W 1.65; Y 2.81
T22: A 3.15; C 3.15; D 4.09; E 4.39; F 2.77; G 3.56; H 3.51; I 2.81; K 3.54; L 2.69; M 3.28; N 3.47; P 3.22; Q 4.18; R 3; S 3.48; V 3.38; W 1.85; Y 3.31
T23: A 3.65; C 3.8; D 3.85; E 4.3; F 2.43; G 3.29; H 3.6; I 3.55; K 3.46; L 3.07; M 2.78; N 3.48; P 3.67; Q 3.54; R 3.37; S 3.39; V 2.85; W 2.48; Y 3.13
D24: A 2.61; C 2.86; E 3.53; F 1.47; G 2.76; H 2.76; I 1.82; K 3.65; L 2.46; M 2.28; N 3.07; P 2.49; Q 2.91; R 3.07; S 3.27; T 2.82; V 3.02; W 1.86; Y 2.29

Variants of: B2
Experiment: as above
Conditions: c terminus: a fixed tail appended

Protein stability index, by site and new letter:
F1: A 4.21; C 3.44; D 5.15; E 5.11; G 4.61; H 4.48; I 3.95; K 4.54; L 4.01; M 3.99; N 4.94; P 4.29; Q 4.24; R 4.61; S 4.64; T 4.63; V 4.46; W 3.6; Y 2.24
T2: A 2.44; C 2.08; D 4.32; E 4.66; F 3.13; G 3.11; H 2.02; I 2.02; K 3.62; L 2.78; M 3.05; N 3.81; P 2.07; Q 2.26; R 2.71; S 2.88; V 2.31; W 2.91; Y 2.75
S3: A 2.37; C 1.65; D 2.55; E 2; F 2.12; G 4.05; H 2.14; I 1.76; K 2.97; L 2.2; M 2.52; N 2.56; P 2.29; Q 2.19; R 2.46; T 1.84; V 2.07; W 2.26; Y 2.03
G4: A 1.82; C 1.94; D 2.79; E 2.22; F 2.13; H 2.59; I 2.15; K 1.98; L 1.7; M 1.74; N 2.3; P 2.78; Q 2.43; R 1.87; S 2.38; T 2.42; V 2.21; W 2.98; Y 1.68
F5: A 4.07; C 3.03; D 4.79; E 4.38; G 3.63; H 3.55; I 3.14; K 3.8; L 3.11; M 3.25; N 4.47; P 3.81; Q 4.12; R 3.25; S 4.18; T 4.06; V 4.01; W 3.06; Y 2.18
N6: A 1.84; C 3; D 2.99; E 2.88; F 3.46; G 1.83; H 2.38; I 1.43; K 2.45; L 2.78; M 3.01; P 1.61; Q 1.94; R 1.41; S 1.85; T 1.61; V 2.08; W 3.02; Y 2.82
A7: C 2.08; D 2.62; E 2.8; F 3.08; G 2.13; H 2.2; I 2.13; K 1.83; L 2.88; M 2.14; N 1.73; P 1.82; Q 2.02; R 2; S 1.92; T 1.83; V 2.35; W 2.39; Y 2.31
A8: C 1.77; D 2.98; E 2.35; F 2.73; G 1.82; H 1.85; I 2.34; K 2.23; L 1.73; M 1.64; N 2.35; P 2.13; Q 1.84; R 2.29; S 1.99; T 1.98; V 2.4; W 2.61; Y 1.89
A9: C 1.83; D 2.42; E 2.46; F 2.92; G 2.06; H 2.18; I 2.44; K 1.62; L 1.78; M 2.08; N 1.82; P 1.86; Q 2.97; R 1.99; S 2.5; T 1.69; V 1.91; W 2.5; Y 2.03
L10: A 1.62; C 1.92; D 2.47; E 3.02; F 2.3; G 2.38; H 2.32; I 1.98; K 1.99; M 2.08; N 2.08; P 2.25; Q 2.14; R 1.78; S 1.53; T 2.01; V 2.33; W 1.95; Y 1.64
D11: A 2.16; C 2.03; E 1.79; F 3.1; G 2.46; H 2.04; I 2.27; K 2.43; L 1.93; M 1.98; N 1.57; P 1.84; Q 2.01; R 2.2; S 1.5; T 2; V 2.6; W 1.4; Y 2.66
Y12: A 2.09; C 2.28; D 2.3; E 2.7; F 1.9; G 2.22

— the supplement of paper PMC10567573
